Reference: article PMC2893456, “Structural definition and substrate specificity of the S28 protease family: the crystal structure of human prolylcarboxypeptidase” (BMC Structural Biology, 2010)

Biological target: the molecule itself
Test: crystal structure; 2.8 Å, MIRAS; space group R32, one molecule in the asymmetric unit, dimer formed across a two-fold crystallographic symmetry axis; crystals from 1.8 M ammonium sulfate, 0.1 M HEPES, pH 7.5, 1-2% PEG 400

B1: human prolylcarboxypeptidase (PRCP) (enzyme)
chain: KNYSVLYFQQKVDHFGFNTVKTFNQRYLVADKYWKKNGGSILFYTGNEGDIIWFCNNTGFMWDVAEELKAMLVFAEHRYYGESLPFGDNSFKDSRHLNFLTSEQALADFAELIKHLKRTIPGAENQPVIAIGGSYGGMLAAWFRMKYPHMVVGALAASAPIWQFEDLVPCGVFMKIVTTDFRKSGPHCSESIHRSWDAINRLSNTGSGLQWLTGALHLCSPLTSQDIQHLKDWISETWVNLAMVDYPYASNFLQPLPAWPIKVVCQYLKNPNVSDSLLLQNIFQALNVYYNYSGQVKCLNISETATSSLGTLGWSYQACTEVVMPFCTNGVDDMFEPHSWNLKELSDDCFQQWGVRPRPSWITTMYGGKNISSHTNIVFSNGELDPWSGGGVTKDITDTLVAVTISEGAHHLDLRTKNALDPMSVLLARSLEVRHMKNWIRDFYDS
modifications: N-linked glycans at Asn 101, 317, 336, 345 and 415 (Asn 47 not glycosylated); disulfide bridges 215-372, 233-310, 264-343, 364-394
notes: prolylcarboxypeptidase (PRCP), human
Q: Does B1 bind?
A: binds
